According to PMC10407282, “An efficient selenium transport pathway of selenoprotein P utilizing a high-affinity ApoER2 receptor variant and being independent of selenocysteine lyase” (The Journal of Biological Chemistry, 2023):

Molecular target: T1, ^75Se-labeled selenoprotein P prepared from HepG2 cells (human (endogenous in HepG2), UniProt P49908 20-381, ^75Se label (cells cultured with ^75Se as selenite); selenocysteine residues)
T1 construct: Selenoprotein P, human, secreted by HepG2 cells that express it endogenously; single band at 69 kDa; also called ^75Se-labeled SeP; ^75Se-labeled human SeP; source: endogenous, HepG2 conditioned medium with ^75Se selenite, partially purified (Ni-NTA agarose, PD-10)
T1 sequence (looked up): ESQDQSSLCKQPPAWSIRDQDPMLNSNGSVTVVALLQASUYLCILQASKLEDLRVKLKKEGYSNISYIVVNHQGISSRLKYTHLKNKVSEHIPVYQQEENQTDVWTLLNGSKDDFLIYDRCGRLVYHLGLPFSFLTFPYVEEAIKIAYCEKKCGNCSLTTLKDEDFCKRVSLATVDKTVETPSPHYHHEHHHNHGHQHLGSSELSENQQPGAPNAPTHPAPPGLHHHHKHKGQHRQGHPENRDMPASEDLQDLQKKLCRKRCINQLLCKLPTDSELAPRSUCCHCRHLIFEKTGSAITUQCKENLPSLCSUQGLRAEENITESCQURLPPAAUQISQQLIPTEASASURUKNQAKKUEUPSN
Assay: radioligand binding; Jurkat cells (1.4 x 10^7) with serial dilution of ^75Se-labeled SeP, 1 h at 4 °C, RPMI 1640 with 0.1% BSA, 0.1% NaN3, 50 mM Hepes pH 7.4; nonspecific binding with 500-fold excess of unlabeled SeP; Scatchard analysis, n = 4
Conditions: one partner purified

- Kd: 670 pM
B1: Apolipoprotein E receptor 2, 140-kDa variant endogenous on Jurkat cells (JΔ5,18) (receptor)
chain: AADPLLGGQGPAKDCEKDQFQCRNERCIPSVWRCDEDDDCLDHSDEDDCPKKTCADSDFTCDNGHCIHERWKCDGEEECPDGSDESEATCTKQVCPAEKLSCGPTSHKCVPASWRCDGEKDCEGGADEAGCATSLGTCRGDEFQCGDGTCVLAIKHCNQEQDCPDGSDEAGCLQGLNECLHNNGGCSHICTDLKIGFECTCPAGFQLLDQKTCGDIDECKDPDACSQICVNYKGYFKCECYPGYEMDLLTKNCKAAAGKSPSLIFTNRHEVRRIDLVKRNYSRLIPMLKNVVALDVEVATNRIYWCDLSYRKIYSAYMDKASDPKEQEVLIDEQLHSPEGLAVDWVHKHIYWTDSGNKTISVATVDGGRRRTLFSRNLSEPRAIAVDPLRGFMYWSDWGDQAKIEKSGLNGVDRQTLVSDNIEWPNGITLDLLSQRLYWVDSKLHQLSSIDFSGGNRKTLISSTDFLSHPFGIAVFEDKVFWTDLENEAIFSANRLNGLEISILAENLNNPHDIVIFHELKQPRAPDACELSVQPNGGCEYLCLPAPQISSHSPKYTCACPDTMWLGPDMKRCYRAPQSTSTTTLASTMTRTVPATTRAPGTTVHRSTYQNHSTETPSLTAAVPSSVSVPRAPSISPSTLSPATSNHSQHYANEDSKMGSTVTAAVIGIIVPIVVIALLCMSGYLIWRNWKRKNTKSMNFDNPVYRKTTEEEDEDELHIGRTAQIGHVYPARVALSLEDDGLP
modifications: highly glycosylated O-linked sugar domain
